Assay results as given in US20250296984A1, “THERAPEUTIC AND DIAGNOSTIC AGENTS AND USES THEREOF” (priority 2022, published 2025).

Experiments:
[1] = target: T1, Peptide-1 […] (SEQ ID NO: 6, 4N variant of ECD3 of US28) (Human cytomegalovirus, UniProt P69332, D170N); type: binding, human cytomegalovirus (HCMV); details: both ECD3 variants compared
T1 construct: made in house; host or cells: chemical synthesis
Text: The binding specificity of a binding molecule of the first aspect of the present invention having anti-ECD3 binding specificity in addition to the anti-SEQ ID NO: 177 specificity (and/or a second binding molecule having anti-ECD3 binding specificity with which a binding molecule of the first aspect of the present invention may be combined in a formulation) to an epitope within ECD3 of a US28 protein may, for example, be assessed in an ELISA, such as a methodology as described in the examples of this application, or by a variant of said methodology, such as by coating peptides derived from ECD3 (such as Bio-Peptide 1 and/or Bio-Peptide-2) on a first set of wells in a microtiter plate and coating a negative control (such as BSA) in a second set of wells in a microtiter plate. The first set of wells may optionally be further subdivided into a first subgroup of the first set of wells that comprises the sequence of a 4N-variant from ECD3 of US28, and a second subgroup of the first set of wells that comprises the sequence of a 4D-variant from ECD3 of US28, to permit the determination of the relative binding specificity to each variant. […]

breast cancer tissues = test: IHC in a breast cancer cohort (primary tumors, metastases, NAT); parameters: species or system human
Text: FIG. 13. The HCMV US28 expression was studied by immunohistochemistry (IHC) and in situ hybridisation (ISH) in a breast cancer cohort. […] Most tumor cells in this sample stained positively for the US28-13-5G6-1D3 rAb (brown colour). […] C. […] The arrows point out some positive HCMV DNA signals in the figure. […] A colour version of FIG. 13 is provided on the page after the non-colour version.
FIG. 14. […] B. Most cancer cells in the same sample were negative for the MAB810R staining. C. […] The arrows point out such positive HCMV DNA signals. The HCMV DNA was not seen in the cytoplasm of the tumor cells. D. The negative control anti-IgG Ab staining for the same sample was negative. A colour version of FIG. 14 is also provided.
FIG. 15. The US28 staining and HCMV ISH were negative in many normal adjacent tumor (NAT) breast tissues as exemplified in the figure with the sample BR1008b_J6. […] C. […] D. The IgG staining was also negative. […] Thus, the samples are exposed to exactly the same staining conditions and antibody/DNA probe concentrations. […] A colour version of FIG. 15 is also provided.
FIG. 16. A. The IHC staining of the primary breast cancer samples with US28-13-5G6-1D3 rAb were specific and positive in ˜73% of the 41 studied primary breast tumor samples. […]

[2] = system: human primary adrenal cortical, kidney epithelial, cardiac microvascular endothelial, liver epithelial and vein smooth muscle cells; test: Flow cytometry off-target surface binding to human primary cells; details: all five cell types, PE-labelled antibody
Experimental: FIG. 19. A. Flowcytometry analysis with the 28-13-5G6-1D3-PE antibody were conducted on various human primary cells to exclude general off-target binding to the surface of these cell types. The following cell lines were studied: human primary adrenal cortical cells, human primary kidney epithelial cells, human primary cardiac microvascular endothelial cells, human primary liver epithelial cells and human primary vein smooth muscle cells. […] B. Original human primary cardiac cells were not available, and human cardiac tissue samples were therefore studied for staining of 13-5G6-1D3 by immunohistochemistry. […] If there were HCMV infections present in the human heart, they were always of productive infection type. […] The positive 13-5G6-1D3 and HCMV ISH results are marked with arrows in the figure. A colour version of FIG. 19 is also provided.

[3] = system: human heart muscle tissue; test: Immunohistochemistry (IHC) on human cardiac tissues; details: FIG. 19 B
Experimental: (§1) Cytomegalovirus (CMV) control slides containing CMV positive lung tissue and CMV negative myometrium (product number #3240A) were obtained from Newcomer Supply Inc., Middleton, WI 53562-2579, USA. Tissue micro-arrays (TMAs) were obtained from US Biomax Inc., Derwood, MD 20855, USA, and included tumor tissues #BR1008b, #BS17016c, #BCN721b and normal tissues #FDA662a and heart tissues #HEN241a.
(§2) The paraffin sections were sequentially immersed into a. 100% xylene three times (5 min each); b. 100% ethanol twice (2 min each); c. 95% ethanol twice (2 min each). The slides were rinsed twice in water for 5 min to remove ethanol. […], the slides were immersed in 3% H2O2 for 5 minutes and washed thereafter twice (2×) with distilled water. The slides were then immersed in the working citrate buffer (pH 6.0) and covered with a lid. The buffer was heated in the microwave until it had boiled, and then kept in the steamer for 15 min.
The sections were cooled at room temperature for 30 min and washed with PBS. 5% BSA blocking solution was then added to the HIER treated samples and they were incubated at 37° C. for 30 min. […] Digitized pictures were taken by Olympus VS120 scanner and analyzed by using OlyVia 3.2 software (Olympus Corporation, 20101 Tokyo, Japan) by senior Pathologist. […]

[4] = system: HCMV infected human lung tissue; test: Immunohistochemistry (IHC) on HCMV infected human lung tissue and controls; details: HCMV positive control slide, FIG. 12
Experimental: as §1, §2
The sections were cooled at room temperature for 30 min and washed with PBS. 5% BSA blocking solution was then added to the HIER treated samples and they were incubated at 37° C. for 30 min. […] Digitized pictures were taken by Olympus VS120 scanner and analyzed by using OlyVia 3.2 software (Olympus Corporation, 20101 Tokyo, Japan) by senior Pathologist.

B1: US28-13-5G6-1D3: monoclonal antibody against ECD3 of HCMV US28; VH SEQ ID NO: 12, VL SEQ ID NO: 18; rAb is the recombinant product (antibody, V domains shown)
VH: EVKLVESGGGLVQPGGSLRLACATSGFTFTDYYMSWVRQPPGKALEWLGFIRSKANGYTTEYSASVKGRFTISRDNSQSILYLQMNTLRSEDSATYYCARDERRTAWLAYWGQGTLVTVSA
VL: DVLMTQTPLSLPVSLGDQASISCRSSQSIVHSNGNTYLDWYLQKPGQSPKLLIYKVSNRFSGVPDRFSGSGSGTDFTLKISRVEAEDLGVYYCFQGSHVPTWTFGGGTKLEIK
modifications: Mature form of VH sequence of 1D3, without the leader sequence; Mature form of VL sequence of 1D3, without the leader sequence
notes: monoclonal antibody against ECD3 of HCMV US28; rAb is the recombinant product
qualitative ELISA binding to Bio-Peptide-1 (4N) and Bio-Peptide-2 (4D) [1]: equal qualitative binding
staining of TNBC (n=7) and HER2 positive (n=11) metastases (breast cancer tissues; all samples): positive
number of negative metastasis samples (breast cancer tissues; hormone receptor positive cancers, of 30 metastases): 2

B2: 13-5G6-1D3: mouse monoclonal IgG1 kappa antibody against US28 ECD3; VH SEQ ID NO: 12, VL SEQ ID NO: 18 (antibody, V domains shown)
VH: EVKLVESGGGLVQPGGSLRLACATSGFTFTDYYMSWVRQPPGKALEWLGFIRSKANGYTTEYSASVKGRFTISRDNSQSILYLQMNTLRSEDSATYYCARDERRTAWLAYWGQGTLVTVSA
VL: DVLMTQTPLSLPVSLGDQASISCRSSQSIVHSNGNTYLDWYLQKPGQSPKLLIYKVSNRFSGVPDRFSGSGSGTDFTLKISRVEAEDLGVYYCFQGSHVPTWTFGGGTKLEIK
modifications: Mature form of VH sequence of 1D3, without the leader sequence; Mature form of VL sequence of 1D3, without the leader sequence
surface binding to human primary cells [2]: < 1%
off-target binding in IHC [3]: did not show any general off-target binding

B3: 13-5G6-1D3 rAb: recombinant antibody product of US28-13-5G6-1D3 produced in HEK293-F cells (antibody)
heavy: EVKLVESGGGLVQPGGSLRLACATSGFTFTDYYMSWVRQPPGKALEWLGFIRSKANGYTTEYSASVKGRFTISRDNSQSILYLQMNTLRSEDSATYYCARDERRTAWLAYWGQGTLVTVSAAKTTPPSVYPLAPGSAAQTNSMVTLGCLVKGYFPEPVTVTWNSGSLSSGVHTFPAVLQSDLYTLSSSVTVPSSTWPSETVTCNVAHPASSTKVDKKIVPRDCGCKPCICTVPEVSSVFIFPPKPKDVLTITLTPKVTCVVVDISKDDPEVQFSWFVDDVEVHTAQTQPREEQFNSTFRSVSELPIMHQDWLNGKEFKCRVNSAAFPAPIEKTISKTKGRPKAPQVYTIPPPKEQMAKDKVSLTCMITDFFPEDITVEWQWNGQPAENYKNTQPIMDTDGSYFIYSKLNVQKSNWEAGNTFTCSVLHEGLHNHHTEKSLSHSPGK
light: DVLMTQTPLSLPVSLGDQASISCRSSQSIVHSNGNTYLDWYLQKPGQSPKLLIYKVSNRFSGVPDRFSGSGSGTDFTLKISRVEAEDLGVYYCFQGSHVPTWTFGGGTKLEIKRADAAPTVSIFPPSSEQLTSGGASVVCFLNNFYPKDINVKWKIDGSERQNGVLNSWTDQDSKDSTYSMSSTLTLTKDEYERHNSYTCEATHKTSTSPIVKSFNRNEC
IHC staining of HCMV infected cells in lung tissue [4]: strong cytoplasmic staining
